Assay results as given in article doi:10.1101/2020.10.14.337170.
Read-outs that look alike come from different tables or passages of the source. One block for each substance: values may come before it.

Legend:
[1] = molecular target: KKT4^101–352 (Trypanosoma brucei); assay: SEC-MALS
[2] = molecular target: KKT4^2–114 (Trypanosoma brucei); assay: SEC-MALS
[3] = molecular target: KKT4^2–114 (Trypanosoma brucei); assay: SEC-MALS; remark: listed apart in the source
[4] = molecular target: Trypanosoma cruzi (Sylvio X10) KKT4^117–218 (Trypanosoma cruzi (Sylvio X10)); assay: crystal structure
[5] = molecular target: Fluorescently-labelled phosphopeptide derived from KKT8 (Trypanosoma brucei); assay: fluorescence polarisation
[6] = molecular target: SNAP-6HIS-3FLAG-KKT4 (KKT4^2–645) (Trypanosoma brucei); assay: SEC-MALS
[7] = molecular target: Leishmania mexicana KKT4^184–284 (Leishmania mexicana); assay: crystal structure

stoichiometry N [1]: 2
Substance: KKT4^101–352 (domain or fragment)

stoichiometry N [2]: 4
stoichiometry N [3]: 3
Substance: KKT4^2–114 (domain or fragment)

stoichiometry N [4]: 2
Substance: Trypanosoma cruzi (Sylvio X10) KKT4^117–218 (domain or fragment)

The next lines start with the substance.

Substance: KKT4^463–645 (KKT4 BRCT domain) (domain or fragment)
Kd [5]: 30 µM

Substance: SNAP-6HIS-3FLAG-KKT4 (KKT4^2–645) (natural protein)
stoichiometry N [6]: 4

Substance: Leishmania mexicana KKT4^184–284 (domain or fragment)
stoichiometry N [7]: 2
